# From patent US20120100561
# T1: phosphoinositide-dependent kinase-1 (PDK1), O15530
# T1 chain: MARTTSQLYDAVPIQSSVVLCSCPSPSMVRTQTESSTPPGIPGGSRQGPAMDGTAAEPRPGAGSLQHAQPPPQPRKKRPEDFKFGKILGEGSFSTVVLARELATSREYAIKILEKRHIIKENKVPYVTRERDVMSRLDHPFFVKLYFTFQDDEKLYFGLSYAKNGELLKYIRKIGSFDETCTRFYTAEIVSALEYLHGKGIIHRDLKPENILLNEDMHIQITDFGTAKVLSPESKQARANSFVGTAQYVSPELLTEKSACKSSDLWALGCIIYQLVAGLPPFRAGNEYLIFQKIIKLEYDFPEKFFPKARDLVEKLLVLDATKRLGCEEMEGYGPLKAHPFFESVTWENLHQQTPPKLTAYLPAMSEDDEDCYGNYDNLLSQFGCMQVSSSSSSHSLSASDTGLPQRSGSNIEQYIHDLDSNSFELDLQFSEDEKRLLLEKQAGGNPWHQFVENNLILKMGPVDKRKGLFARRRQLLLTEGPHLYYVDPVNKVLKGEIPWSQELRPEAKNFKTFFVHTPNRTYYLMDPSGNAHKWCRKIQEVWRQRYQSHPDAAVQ
# B1: Flag-PKN3 wt (N-terminal Flag epitope-tagged full-length kinase active human PKN3) (protein)
# chain: DYKDDDKMEEGAPRQPGPSQWPPEDEKEVIRRAIQKELKIKEGVENLRRVATDRRHLGHVQQLLRSSNRRLEQLHGELRELHARILLPGPGPGPAEPVASGPRPWAEQLRARHLEALRRQLHVELKVKQGAENMTHTCASGTPKERKLLAAAQQMLRDSQLKVALLRMKISSLEASGSPEPGPELLAEELQHRLHVEAAVAEGAKNVVKLLSSRRTQDRKALAEAQAQLQESSQKLDLLRLALEQLLEQLPPAHPLRSRVTRELRAAVPGYPQPSGTPVKPTALTGTLQVRLLGCEQLLTAVPGRSPAAALASSPSEGWLRTKAKHQRGRGELASEVLAVLKVDNRVVGQTGWGQVAEQSWDQTFVIPLERARELEIGVHWRDWRQLCGVAFLRLEDFLDNACHQLSLSLVPQGLLFAQVTFCDPVIERRPRLQRQERIFSKRRGQDFLRASQMNLGMAAWGRLVMNLLPPCSSPSTISPPKGCPRTPTTLREASDPATPSNFLPKKTPLGEEMTPPPKPPRLYLPQEPTSEETPRTKRPHMEPRTRRGPSPPASPTRKPPRLQDFRCLAVLGRGHFGKVLLVQFKGTGKYYAIKALKKQEVLSRDEIESLYCEKRILEAVGCTGHPFLLSLLACFQTSSHACFVTEFVPGGDLMMQIHEDVFPEPQARFYVACVVLGLQFLHEKKIIYRDLKLDNLLLDAQGFLKIADFGLCKEGIGFGDRTSTFCGTPEFLAPEVLTQEAYTRAVDWWGLGVLLYEMLVGECPFPGDTEEEVFDCIVNMDAPYPGFLSVQGLEFIQKLLQKCPEKRLGAGEQDAEEIKVQPFFRTTNWQALLARTIQPPFVPTLCGPADLRYFEGEFTGLPPALTPPAPHSLLTARQQAAFRDFDFVSERFLEP
# Legend:
# [1] = molecular target: Myc-RhoC (N-terminal Myc epitope-tagged full-length human RhoC)
# [2] = molecular target: T1, phosphoinositide-dependent kinase-1 …
# Myc-RhoC (N-terminal Myc epitope-tagged full-length human RhoC), sequence (chain, as listed by the source): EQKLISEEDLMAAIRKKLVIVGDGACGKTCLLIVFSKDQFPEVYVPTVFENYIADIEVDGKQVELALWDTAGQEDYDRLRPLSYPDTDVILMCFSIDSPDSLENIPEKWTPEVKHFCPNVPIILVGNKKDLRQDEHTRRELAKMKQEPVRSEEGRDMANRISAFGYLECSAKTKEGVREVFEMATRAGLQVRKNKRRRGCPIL
protein,measurement,setting,value
B1,"kinase activity of the anti-Flag immunoprecipitate toward the PKN3 substrate (GSK3α-derived fragment, SEQ ID NO:1), Western blot",[1],"the kinase activity is greatest for the PPRC complex than either PKN3 alone, or PKN3 and RhoC combined"
same,"kinase activity of the anti-Flag immunoprecipitate toward the PKN3 substrate (GSK3α-derived fragment, SEQ ID NO:1), Western blot",[2],"the kinase activity is greatest for the PPRC complex than either PKN3 alone, or PKN3 and RhoC combined"
